B1: Chimeric Canine Mab A v2 (antibody)
heavy: QVQLKESGPGLVAPSQTLSLTCTVSGFSLSSYHVHWVRQPPGKGLEWLGVMWNDGDTSYNLALNSRLSISRDTSKSQVFFKMSSLQTEDTATYYCARPELPGLTYGVWFPYWGQGTLVTVSAASTTAPSVFPLAPSCGSTSGSTVALACLVSGYFPEPVTVSWNSGSLTSGVHTFPSVLQSSGLYSLSSMVTVPSSRWPSETFTCNVAHPASKTKVDKPVPKRENGRVPRPPDCPKCPAPEMLGGPSVFIFPPKPKDTLLIARTPEVTCVVVDLDPEDPEVQISWFVDGKQMQTAKTQPREEQFNGTYRVVSVLPIGHQDWLKGKQFTCKVNNKALPSPIERTISKARGQAHQPSVYVLPPSREELSKNTVSLTCLIKDFFPPDIDVEWQSNGQQEPESKYRTTPPQLDEDGSYFLYSKLSVDKSRWQRGDTFICAVMHEALHNHYTQESLSHSPGK
light: DIVMTQTPASMSISVGDRVTMNCKASQNVDSNVDWYQQKTGQSPNLLIYKASNRNTGVPDRFTGSGSGTDFTFTISNMQAEDLAVYYCMQSTSYPLTFGSGTKLEIKRNDAQPAVYLFQPSPDQLHTGSASVVCLLNSFYPKDINVKWKVDGVIQDTGIQESVTEQDKDSTYSLSSTLTMSSTEYLSHELYSCEITHKSLPSTLIKSFQRSECQRVD
B2: Chimeric Canine Mab B v2 (antibody, V domains shown)
VH: QVQLKESGPGLVQPSETLSLTCTVSGFSLTSYGVSWVRQPPGKGLEWMGTMWNDGDTDYNSALRSKLSISRDTSKSQVFLKMNSLQTEDTAIYYCARSQLPGYNLRGWFVYWGQGTLVIVSA
VL: DIQMTQSPPVLSASVGDRVTLSCKASHNINKNLEWYQQKLGEAPKLLIYYANNLQTGIPSRFSGSGSGTDYTLTISSLQPEDVATYYCYQYNSGHTFGAGTKLEIKR

What was measured:
[1] = molecular target: canine parvovirus CPV-2b (canine parvovirus CPV-2b); test: cell-based or functional assay
[2] = molecular target: recombinant canine parvovirus CPV2b capsid (Advanced ImmunoChemical Inc Cat #8-CPV) (canine parvovirus CPV2b); test: BLI (Octet), biotinylated antibody on streptavidin tips, VLP at 40 µg/mL as analyte, 1:1 fit

Molecule | CPV-2b HI (hemagglutination inhibition) [1] | Kd [2]
irrelevant canine IgG (antibody) | < 20 | –
B1 | – | 0.0978 nM
B2 | – | 0.00938 nM
